Results reported in patent US20110028538.

System: TR4 (Nr2c2), endogenous (Mus musculus)
Settings: ChIP with anti-TR4 in RAW264.7 cells versus IgG

## CD36 promoter region (ChIP amplicon)
  binding signal: > 4 fold
